From IntAct's records for PubMed 22345554

B1: Bile acid receptor (Homo sapiens), Q96RI1 (parent)
chain: MVMQFQGLENPIQISPHCSCTPSGFFMEMMSMKPAKGVLTEQVAGPLGQNLEVEPYSQYSNVQFPQVQPQISSSSYYSNLGFYPQQPEEWYSPGIYELRRMPAETLYQGETEVAEMPVTKKPRMGASAGRIKGDELCVVCGDRASGYHYNALTCEGCKGFFRRSITKNAVYKCKNGGNCVMDMYMRRKCQECRLRKCKEMGMLAECMYTGLLTEIQCKSKRLRKNVKQHADQTVNEDSEGRDLRQVTSTTKSCREKTELTPDQQTLLHFIMDSYNKQRMPQEITNKILKEEFSAEENFLILTEMATNHVQVLVEFTKKLPGFQTLDHEDQIALLKGSAVEAMFLRSAEIFNKKLPSGHSDLLEERIRNSGISDEYITPMFSFYKSIGELKMTQEEYALLTAIVILSPDRQYIKDREAVEKLQEPLLDVLQKLCKIHQPENPQHFACLLGRLTELRTFNHHHAEMLMSWRVNDHKFTPLLCEIWDVQ
partner: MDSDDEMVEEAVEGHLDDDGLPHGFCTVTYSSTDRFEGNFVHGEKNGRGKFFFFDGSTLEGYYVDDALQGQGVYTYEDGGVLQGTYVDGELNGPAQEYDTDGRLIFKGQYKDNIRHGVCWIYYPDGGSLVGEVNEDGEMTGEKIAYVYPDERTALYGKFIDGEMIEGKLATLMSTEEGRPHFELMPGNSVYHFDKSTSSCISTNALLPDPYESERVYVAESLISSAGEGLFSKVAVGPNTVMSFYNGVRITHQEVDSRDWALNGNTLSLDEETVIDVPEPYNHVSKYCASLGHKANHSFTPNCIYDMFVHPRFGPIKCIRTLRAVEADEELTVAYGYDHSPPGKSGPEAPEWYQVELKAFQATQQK

Variants of: B1
Conditions: with setd7_human SETD7, Q8WTS6

Variant	effect of a mutation on the interaction
K220R	decreasing interaction
